# Source: PMC11209852
# Target: GST-fused human AP-2 alpha-C (AP2A2) appendage domain, Ser923Gly (human) (UniProt O94973)
# Assay: pull-down
# Chain of UniProt O94973 (O94973 whole entry S923G, the tested form may be a part): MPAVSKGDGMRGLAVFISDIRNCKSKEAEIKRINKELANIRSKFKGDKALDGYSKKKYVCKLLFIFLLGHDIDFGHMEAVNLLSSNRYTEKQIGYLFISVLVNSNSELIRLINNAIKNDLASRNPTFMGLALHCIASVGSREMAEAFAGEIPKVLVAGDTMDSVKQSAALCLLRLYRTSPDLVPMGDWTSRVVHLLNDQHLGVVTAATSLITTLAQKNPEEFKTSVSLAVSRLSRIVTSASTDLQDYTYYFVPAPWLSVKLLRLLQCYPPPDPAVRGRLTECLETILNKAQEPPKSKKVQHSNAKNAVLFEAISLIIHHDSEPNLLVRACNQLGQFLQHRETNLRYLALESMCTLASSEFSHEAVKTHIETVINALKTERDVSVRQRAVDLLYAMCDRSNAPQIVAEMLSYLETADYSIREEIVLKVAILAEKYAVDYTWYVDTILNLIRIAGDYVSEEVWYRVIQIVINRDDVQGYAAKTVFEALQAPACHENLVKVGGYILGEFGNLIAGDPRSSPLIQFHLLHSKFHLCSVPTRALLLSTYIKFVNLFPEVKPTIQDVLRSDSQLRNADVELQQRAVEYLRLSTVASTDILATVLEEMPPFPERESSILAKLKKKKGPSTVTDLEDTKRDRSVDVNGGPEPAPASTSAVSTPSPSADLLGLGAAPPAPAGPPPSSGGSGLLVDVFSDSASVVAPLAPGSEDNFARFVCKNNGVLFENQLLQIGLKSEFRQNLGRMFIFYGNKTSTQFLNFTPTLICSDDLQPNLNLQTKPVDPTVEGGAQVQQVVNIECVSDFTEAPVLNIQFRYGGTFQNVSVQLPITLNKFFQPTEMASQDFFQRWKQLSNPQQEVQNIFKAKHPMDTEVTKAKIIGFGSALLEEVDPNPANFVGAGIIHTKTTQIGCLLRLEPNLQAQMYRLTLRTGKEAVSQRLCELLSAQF
row,Molecule,percent reduction of pulled-down signal against wildtype AP2A2-ear [%]
1,amphiphysin (from UniProt P49418 1-695) (natural protein),20
2,AP180 (natural protein) MSGQTLTDRIAAAQYSVTGSAVARAVCKATTHEVMGPKKKHLDYLIQATNETNVNIPQMADTLFERATNSSWVVVFKALVTTHHLMVHGNERFIQYLASRNTLFNLSNFLDKSGSHGYDMSTFIRRYSRYLNEKAFSYRQMAFDFARVKKGADGVMRTMAPEKLLKSMPILQGQIDALLEFDVHPNELTNGVINAAFMLLFKDLIKLFACYNDGVINLLEKFFEMKKGQCKDALEIYKRFLTRMTRVSEFLKVAEQVGIDKGDIPDLTQAPSSLMETLEQHLNTLEGKKPGNNEGSGAPSPLSKSSPATTVTSPNSTPAKTIDTSPPVDLFATASAAVPVSTSKPSSDLLDLQPDFSSGGAAAAAAPAPPPPAGGATAWGDLLGEDSLAALSSVPSEAQISDPFAPEPTPPTTTAEIATASASASTTTTVTAVTAEVDLFGDAFAASPGEAPAASEGAAAPATPTPVAAALDACSGNDPFAPSEGSAEAAPELDLFAMKPPETSVPVVTPTASTAPPVPATAPSPAPAVAAAAAATTAATAAATTTTTTSAATATTAPPALDIFGDLFESTPEVAAAPKPDAAPSIDLFSTDAFSSPPQGASPVPESSLTADLLSVDAFAAPSPATTASPAKVDSSGVIDLFGDAFGSSASEPQPASQAASSSSASADLLAGFGGSFMAPSPSPVTPAQNNLLQPNFEAAFGTTPSTSSSSSFDPSVFDGLGDLLMPTMAPAGQPAPVSMVPPSPAMAASKALGSDLDSSLASLVGNLGISGTTTKKGDLQWNAGEKKLTGGANWQPKVAPATWSAGVPPSAPLQGAVPPTSSVPPVAGAPSVGQPGAGFGMPPAGTGMPMMPQQPVMFAQPMMRPPFGAAAVPGTQLSPSPTPASQSPKKPPAKDPLADLNIKDFL,80

# Next, values leading:
row,percent reduction of pulled-down signal against wildtype AP2A2-ear [%],Molecule
1,30,EPS15 (natural protein) MAAAAQLSLTQLSSGNPVYEKYYRQVDTGNTGRVLASDAAAFLKKSGLPDLILGKIWDLADTDGKGILNKQEFFVALRLVACAQNGLEVSLSSLNLAVPPPRFHDTSSPLLISGTSAAELPWAVKPEDKAKYDAIFDSLSPVNGFLSGDKVKPVLLNSKLPVDILGRVWELSDIDHDGMLDRDEFAVAMFLVYCALEKEPVPMSLPPALVPPSKRKTWVVSPAEKAKYDEIFLKTDKDMDGFVSGLEVREIFLKTGLPSTLLAHIWSLCDTKDCGKLSKDQFALAFHLISQKLIKGIDPPHVLTPEMIPPSDRASLQKNIIGSSPVADFSAIKELDTLNNEIVDLQREKNNVEQDLKEKEDTIKQRTSEVQDLQDEVQRENTNLQKLQAQKQQVQELLDELDEQKAQLEEQLKEVRKKCAEEAQLISSLKAELTSQESQISTYEEELAKAREELSRLQQETAELEESVESGKAQLEPLQQHLQDSQQEISSMQMKLMEMKDLENHNSQLNWCSSPHSILVNGATDYCSLSTSSSETANLNEHVEGQSNLESEPIHQESPARSSPELLPSGVTDENEVTTAVTEKVCSELDNNRHSKEEDPFNVDSSSLTGPVADTNLDFFQSDPFVGSDPFKDDPFGKIDPFGGDPFKGSDPFASDCFFRQSTDPFATSSTDPFSAANNSSITSVETLKHNDPFAPGGTVVAASDSATDPFASVFGNESFGGGFADFSTLSKVNNEDPFRSATSSSVSNVVITKNVFEETSVKSEDEPPALPPKIGTPTRPCPLPPGKRSINKLDSPDPFKLNDPFQPFPGNDSPKEKDPEIFCDPFTSATTTTNKEADPSNFANFSAYPSEEDMIEWAKRESEREEEQRLARLNQQEQEDLELAIALSKSEISEA
2,70,auxilin (natural protein) MKDSENKGASSPDMEPSYGGGLFDMVKGGAGRLFSNLKDNLKDTLKDTSSRVIQSVTSYTKGDLDFTYVTSRIIVMSFPLDNVDIGFRNQVDDIRSFLDSRHLDHYTVYNLSPKSYRTAKFHSRVSECSWPIRQAPSLHNLFAVCRNMYNWLLQNPKNVCVVHCLDGRAASSILVGAMFIFCNLYSTPGPAIRLLYAKRPGIGLSPSHRRYLGYMCDLLADKPYRPHFKPLTIKSITVSPIPFFNKQRNGCRPYCDVLIGETKIYSTCTDFERMKEYRVQDGKIFIPLNITVQGDVVVSMYHLRSTIGSRLQAKVTNTQIFQLQFHTGFIPLDTTVLKFTKPELDACDVPEKYPQLFQVTLDVELQPHDKVIDLTPPWEHYCTKDVNPSILFSSHQEHQDTLALGGQAPIDIPPDNPRHYGQSGFFASLCWQDQKSEKSFCEEDHAALVNQESEQSDDELLTLSSPHGNANGDKPHGVKKPSKKQQEPAAPPPPEDVDLLGLEGSAMSNSFSPPAAPPTNSELLSDLFGGGGAAGPTQAGQSGVEDVFHPSGPASTQSTPRRSATSTSASPTLRVGEGATFDPFGAPSKPSGQDLLGSFLNTSSASSDPFLQPTRSPSPTVHASSTPAVNIQPDVSGGWDWHAKPGGFGMGSKSAATSPTGSSHGTPTHQSKPQTLDPFADLGTLGSSSFASKPTTPTGLGGGFPPLSSPQKASPQPMGGGWQQGGAYNWQQPQPKPQPSMPHSSPQNRPNYNVSFSAMPGGQNERGKGSSNLEGKQKAADFEDLLSGQGFNAHKDKKGPRTIAEMRKEEMAKEMDPEKLKILEWIEGKERNIRALLSTMHTVLWAGETKWKPVGMADLVTPEQVKKVYRKAVLVVHPDKATGQPYEQYAKMIFMELNDAWSEFENQGQKPLY
